# Experimental data as given in article PMC12737151, “Systematic Development and Characterization of Enzyme-Free, Borax-Crosslinked Microneedles for Glucose-Responsive Insulin Delivery and In Vivo Glycemic Mitigation” (Pharmaceutics, 2025).
# What was measured:
# [1] = system: STZ-diabetic mice; set-up: species or system C57BL/6J mice; settings: mouse, in vivo; SD
# [2] = system: STZ-diabetic mice; assay: Intraperitoneal glucose-tolerance test (IPGTT); format: in vivo, C57BL/6J mice; settings: 30 min after 1.5 g·kg^−1 glucose i.p., 4 h post-treatment, mean ± SD, n = 8
# [3] = system: STZ-diabetic mice; assay: Baseline efficacy 0–12 h: plasma glucose and plasma insulin; format: in vivo, C57BL/6J mice; settings: basal monitoring, mean ± SD, n = 8
# [4] = set-up: species or system C57BL/6J mice; settings: mouse, in vivo; SD
# Description: Pharmacokinetics. Serial blood samples were collected following sI-MN application or SC insulin dosing. Plasma insulin concentrations were quantified by ELISA (4-PL; appropriate plasma dilution; internal QCs and spike-recovery within 80–120%). Noncompartmental analysis (NCA) yielded Cmax, tmax, and AUC over the reported interval, and terminal half-life (t1/2). […] AUCs were calculated by the linear-up/linear-down trapezoidal rule.
# patches (related to Section 2.2.3).
# Mechanical Robustness — Single-Needle Fracture
# compression at constant speed. Fracture point was identified from force–
# displacement traces. Per-array mean ± SD and overall CV were computed.
# ICC(1,1) (related to Section 2.2.4).
# ELISA Validation — Patch Extract Matrices
# ELISA sample diluent to fall within the validated range. For in-vitro release,
# corner wells avoided to minimize edge effects. Carryover was checked by
# placing an LLOQ well immediately after the ULOQ well. Matrix effect and
# 120% recovery and CV ≤15% (≤20% at LLOQ). Content (IU per patch) was
# human insulin (≈28.8 IU·mg⁻¹). All ELISA-derived masses were converted
# accordingly before IU normalizatio. Uniformity was summarized as mean ±
# ELISA Validation — Mouse Plasma (PK)
# inverted, and kept on wet ice.
# specified visual criterion) were excluded. Samples were diluted 1:5–1:20 in kit
# Selectivity against endogenous
# mouse insulin was ensured per manufacturer documentation (cross-reactivity
# <0.1%) and confirmed by blank plasma < LLOQ. Stability was verified for
# 14 days (≥90%). PK outputs per animal included observed Cmax, Tmax, AUC₀–
# regression), and t½ = ln2/λz.
# ICP–MS Validation — Boron Leaching
# Ventures (Christiansburg, VA, USA). External calibration used 0–100 µg·L⁻¹
# standards (matrix-matched), with R² ≥ 0.99 required. A rinse of 2% HNO₃ for
# daily for five consecutive days.
# dose and prior to glycemic assessments as applicable. Fasting plasma glucose
# were excluded per pre-specified rules. All animal procedures complied with
# and conformed to ARRIVE guidelines.
# [5] = mouse, in vivo; SD
substance,measurement,setting,value
recombinant human insulin [SC insulin],IVGTT plasma insulin,[1],5.4 ± 0.4 ng/mL
same,IPGTT peak glycemia (maximal group mean at 30 min),[2],272 ± 17 mg/dL
same,Plasma glucose (PGL),"[3]; 0 h, dose-matched SC vs patch (nominal 0.05–0.20 IU)",344 ± 16 mg/dL
same,Plasma glucose (PGL),"[3]; 12 h, dose-matched",220 ± 30 mg/dL
same,AUC0–12h,[4],192 ± 11 ng·h/mL
same,Tmax,[4],1.0 ± 0.1 h
same,t½ (terminal half-life),[4],2.64 ± 0.12 h
same,AST,[5],48.2 ± 6.7 U·L⁻¹
same,Creatinine,[5],39.4 ± 2.5 µmol/L
